Key:
C. apon LDH = molecular target: T1, C. apon LDH (Cyanobacterium aponinum, UniProt K9Z684); test: X-ray crystal structure of complex; format: binding; conditions: 2 mM each
T1 sequence (K9Z684 1-331): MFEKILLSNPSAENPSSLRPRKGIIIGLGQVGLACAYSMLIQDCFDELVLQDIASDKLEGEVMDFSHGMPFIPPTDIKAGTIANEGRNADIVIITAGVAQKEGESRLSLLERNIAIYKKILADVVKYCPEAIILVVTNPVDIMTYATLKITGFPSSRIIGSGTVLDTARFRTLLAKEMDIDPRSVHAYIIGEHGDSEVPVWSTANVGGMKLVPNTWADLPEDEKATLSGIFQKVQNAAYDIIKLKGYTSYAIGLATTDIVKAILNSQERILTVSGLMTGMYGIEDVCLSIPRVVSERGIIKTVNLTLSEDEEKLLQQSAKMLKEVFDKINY

[1] = molecular target: Y190W C. apon LDH (Cyanobacterium aponinum); test: AUC
SEC-MALS = molecular target: the molecule itself; test: SEC-MALS

NC(=O)C1=CN([C@@H]2O[C@H](COP(=O)(O)OP(=O)(O)OC[C@H]3O[C@@H](n4cnc5c(N)ncnc54)[C@H](O)[C@@H]3O)[C@@H](O)[C@H]2O)C=CC1 [NADH]
X-ray crystal structure of complex (C. apon LDH; cofactor site, with oxamate and FBP): active sites of each monomer occupied with a NADH and an oxamate molecule

NC(=O)C(=O)O [oxamate]
X-ray crystal structure of complex (C. apon LDH; active site, substrate analogue, with NADH and FBP): active sites of each monomer occupied with a NADH and an oxamate molecule

Y190W C. apon LDH (enzyme)
stoichiometry N [1]: 4

B1: Cyanobacterium aponinum lactate dehydrogenase, wild type (enzyme)
chain: T1 sequence (K9Z684 1-331)
stoichiometry N (SEC-MALS): 4

B2: ΔN-ter C. apon LDH (N-terminal sequence … deleted) (domain or fragment, Cyanobacterium aponinum, UniProt K9Z684 21-331, looked up)
chain: RKGIIIGLGQVGLACAYSMLIQDCFDELVLQDIASDKLEGEVMDFSHGMPFIPPTDIKAGTIANEGRNADIVIITAGVAQKEGESRLSLLERNIAIYKKILADVVKYCPEAIILVVTNPVDIMTYATLKITGFPSSRIIGSGTVLDTARFRTLLAKEMDIDPRSVHAYIIGEHGDSEVPVWSTANVGGMKLVPNTWADLPEDEKATLSGIFQKVQNAAYDIIKLKGYTSYAIGLATTDIVKAILNSQERILTVSGLMTGMYGIEDVCLSIPRVVSERGIIKTVNLTLSEDEEKLLQQSAKMLKEVFDKINY
stoichiometry N (SEC-MALS): 2
